This is an account of results in article PMC8002523.

The test system of data set [1] is hemoglobin (Hb). Nature of the data set: electrochemical displacement from graphene oxide (SWV). Particulars: Binding buffer, pH and temperature not given in the material; aptamer stock 2.0 uM in sterile deionized water; ferricyanide redox probe; fluorescence ex 480 / ….
The test system of data set [2] is immunoglobulin G (IgG). The data set is described as above. The settings on record: Binding buffer, pH and temperature not given in the material; aptamer stock 2.0 uM in sterile deionized water; ferricyanide redox probe; fluorescence ex 480 / ….

With “TGCGGTTCGTGCGGTTGTAGTAC [Modified G8-FAM]”, the binding signal (% current response) in data set [1] is 11.7; in data set [2] it was 29.5.
